Assay [1] has as its target T1, HLA-A0201 (Homo sapiens, UniProt P04439, D140Y/D185E/D98H/E176V/E277Q/G131W/G231S/I119V/I121R/I166T/I218V/L300P/L318F/N151K/N90K/P208A/P217A/Q86G/Q94H/R138H/R169H/T345S).
T1 construct: ability of peptides to stabilise HLA-A0201 expression in the TAP-deficient T2 cells; endogenous in cells; host or cells: T2 cells (human, TAP-deficient; ATCC CRL 1992)
In words: T2 assay: HLA-A0201 binding of peptides (stabilisation of HLA-A0201 expression in TAP-deficient T2 cells). As to the method: By “HLA-binding” peptide we mean a peptide which binds to one or more HLA molecules. Typically, a peptide will show HLA binding in a T2 binding assay when present in a concentration range of 10 μM to 1 nM. Whether or not a peptide of human CD45 is an HLA-binding peptide can be determined using methods known in the art. These methods include the T2 HLA stabilisation assay described in FIG. 1, and the method described by Elvin et al (1993) J. Immunol. Methods 158, 161-171.
Peptide binding was measured using the T2 assay that is based on the ability of peptides to stabilise HLA-A0201 expression in the TAP-deficient T2 cells.
Sixteen peptides of the CD45 molecule were selected and 14 of them we tested in HLA-A0201 binding assays as described in the legend to FIG. 1.

The subject of assay [2] is CTL from HLA-A0201 negative donors. Briefly: Stimulation of peptide-specific allorestricted CTL responses by peptide. In kind it is cell-based, human. The source says: Peptide-specific CTL were isolated from HLA-A0201 negative donors using the method described in WO 97/26328. Three peptide-specific lines were established and found to show specific killing of T2 target cells presenting peptide 1218 but not targets presenting control HLA-A0201− binding peptides (HBV(18-27)).
Peptide-specific CTL were isolated from HLA-A0201 negative donors using the method described in WO 97/26328. Three peptide-specific lines were established and found to show specific killing of T2 target cells presenting peptide 1218 but not targets presenting control peptides.

Read-outs that look alike come from different tables or passages of the source.

In the case of “FLYDVIAST [huCD45/1218, peptide of human CD45]”, the HLA-A0201 binding entry in assay [1] is given as “binds HLA-A0201”; in assay [1] (listed as Peptide 1218), “one of the best binders”; in assay [1] (listed as p1218), “one of the best binding peptides”; in assay [1] (listed as peptide 1218) it was “one of the best binders”. In addition, the “induction of peptide specific CTL” value in assay [2] (listed as Peptide 1218) is “can induce peptide specific CTL”; in assay [2] (listed as p1218), “reliably generate peptide-specific, allorestricted CTL”.

The values above are taken from patent US20030103946A1, “Immunotherapeutic methods and molecules” (Imperial College Innovations Limited, priority 2000, published 2003).
